Results from patent EP4321174A1 (Genome and Company, dated 2024).

Tests used:
Assay in all cases: ELISA, coated CNTN4 domain sample, anti-human IgG Fc-HRP
[1] = biological target: T1, Human CNTN4 domain sample D1-7 (human, UniProt Q8IWV2 19-697, limits assumed)
T1 construct: domain: Domains 1 to 7; Coated at 2.8 ug/mL
T1 sequence (looked up): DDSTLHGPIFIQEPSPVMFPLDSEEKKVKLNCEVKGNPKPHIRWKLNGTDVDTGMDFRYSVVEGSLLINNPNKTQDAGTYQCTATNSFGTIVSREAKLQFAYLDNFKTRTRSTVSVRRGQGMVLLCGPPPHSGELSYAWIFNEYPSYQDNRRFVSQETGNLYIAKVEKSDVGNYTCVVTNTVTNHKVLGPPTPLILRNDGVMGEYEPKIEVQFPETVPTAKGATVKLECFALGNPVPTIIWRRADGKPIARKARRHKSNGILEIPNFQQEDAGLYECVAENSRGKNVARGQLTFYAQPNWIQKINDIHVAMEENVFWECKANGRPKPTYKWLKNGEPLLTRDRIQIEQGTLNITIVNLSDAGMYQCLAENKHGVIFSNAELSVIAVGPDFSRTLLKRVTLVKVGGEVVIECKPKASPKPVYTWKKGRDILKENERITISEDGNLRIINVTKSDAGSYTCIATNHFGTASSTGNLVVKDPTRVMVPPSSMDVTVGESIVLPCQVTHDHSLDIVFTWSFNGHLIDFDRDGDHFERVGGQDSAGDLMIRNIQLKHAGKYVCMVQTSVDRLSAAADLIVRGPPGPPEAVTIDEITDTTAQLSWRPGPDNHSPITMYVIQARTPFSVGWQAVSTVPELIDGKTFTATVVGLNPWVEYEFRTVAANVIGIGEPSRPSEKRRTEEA

[2] = biological target: T2, Human CNTN4 domain sample Full (Domains 1 to 10) (human, UniProt Q8IWV2 19-1000, limits assumed)
T2 construct: domain: Domains 1 to 10 (Ig1 to FN4); Coated on the ELISA plate at 4 ug/mL
T2 sequence (looked up): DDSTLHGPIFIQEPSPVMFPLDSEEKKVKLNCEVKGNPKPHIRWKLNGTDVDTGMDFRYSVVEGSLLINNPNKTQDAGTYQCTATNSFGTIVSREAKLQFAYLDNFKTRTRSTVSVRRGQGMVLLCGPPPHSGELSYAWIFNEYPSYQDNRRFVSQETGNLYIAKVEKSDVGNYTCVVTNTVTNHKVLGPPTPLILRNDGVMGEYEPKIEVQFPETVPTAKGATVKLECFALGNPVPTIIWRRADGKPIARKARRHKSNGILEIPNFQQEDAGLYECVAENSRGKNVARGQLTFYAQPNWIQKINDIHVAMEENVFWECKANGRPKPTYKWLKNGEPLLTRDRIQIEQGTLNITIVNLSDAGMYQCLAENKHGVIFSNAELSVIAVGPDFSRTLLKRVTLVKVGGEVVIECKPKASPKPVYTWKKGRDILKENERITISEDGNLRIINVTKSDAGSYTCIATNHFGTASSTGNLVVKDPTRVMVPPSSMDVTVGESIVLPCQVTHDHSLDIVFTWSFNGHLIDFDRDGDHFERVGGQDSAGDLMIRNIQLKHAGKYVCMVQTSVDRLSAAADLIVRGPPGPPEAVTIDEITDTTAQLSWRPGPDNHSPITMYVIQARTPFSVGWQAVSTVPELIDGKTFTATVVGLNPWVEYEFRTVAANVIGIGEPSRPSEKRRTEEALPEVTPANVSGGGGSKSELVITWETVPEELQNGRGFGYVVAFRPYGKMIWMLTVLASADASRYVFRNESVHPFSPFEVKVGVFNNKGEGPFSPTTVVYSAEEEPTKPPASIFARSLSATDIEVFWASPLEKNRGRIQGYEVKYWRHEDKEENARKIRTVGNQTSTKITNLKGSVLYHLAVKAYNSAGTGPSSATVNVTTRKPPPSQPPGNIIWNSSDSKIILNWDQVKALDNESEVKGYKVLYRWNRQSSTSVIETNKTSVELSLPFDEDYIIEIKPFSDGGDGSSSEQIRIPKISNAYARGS

[3] = biological target: T3, Human CNTN4 domain sample D1-5 (human, UniProt Q8IWV2 19-493, limits assumed)
T3 construct: domain: Domains 1 to 5; Coated at 2.0 ug/mL
T3 sequence (looked up): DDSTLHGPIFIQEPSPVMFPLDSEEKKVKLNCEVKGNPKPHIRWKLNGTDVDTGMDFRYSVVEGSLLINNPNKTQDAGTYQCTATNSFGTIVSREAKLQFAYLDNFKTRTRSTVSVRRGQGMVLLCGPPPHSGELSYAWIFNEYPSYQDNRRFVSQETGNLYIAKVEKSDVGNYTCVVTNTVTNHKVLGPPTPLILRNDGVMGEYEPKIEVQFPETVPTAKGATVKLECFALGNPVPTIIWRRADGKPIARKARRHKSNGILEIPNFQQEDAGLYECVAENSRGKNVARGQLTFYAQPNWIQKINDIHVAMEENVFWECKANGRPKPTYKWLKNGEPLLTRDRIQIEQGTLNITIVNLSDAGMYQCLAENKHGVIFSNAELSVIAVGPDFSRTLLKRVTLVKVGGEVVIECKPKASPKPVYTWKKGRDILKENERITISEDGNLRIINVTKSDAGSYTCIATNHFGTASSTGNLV

[4] = biological target: T4, Human CNTN4 domain sample D1-8 (human, UniProt Q8IWV2 19-799, limits assumed)
T4 construct: domain: Domains 1 to 8; Coated at 3.2 ug/mL
T4 sequence (looked up): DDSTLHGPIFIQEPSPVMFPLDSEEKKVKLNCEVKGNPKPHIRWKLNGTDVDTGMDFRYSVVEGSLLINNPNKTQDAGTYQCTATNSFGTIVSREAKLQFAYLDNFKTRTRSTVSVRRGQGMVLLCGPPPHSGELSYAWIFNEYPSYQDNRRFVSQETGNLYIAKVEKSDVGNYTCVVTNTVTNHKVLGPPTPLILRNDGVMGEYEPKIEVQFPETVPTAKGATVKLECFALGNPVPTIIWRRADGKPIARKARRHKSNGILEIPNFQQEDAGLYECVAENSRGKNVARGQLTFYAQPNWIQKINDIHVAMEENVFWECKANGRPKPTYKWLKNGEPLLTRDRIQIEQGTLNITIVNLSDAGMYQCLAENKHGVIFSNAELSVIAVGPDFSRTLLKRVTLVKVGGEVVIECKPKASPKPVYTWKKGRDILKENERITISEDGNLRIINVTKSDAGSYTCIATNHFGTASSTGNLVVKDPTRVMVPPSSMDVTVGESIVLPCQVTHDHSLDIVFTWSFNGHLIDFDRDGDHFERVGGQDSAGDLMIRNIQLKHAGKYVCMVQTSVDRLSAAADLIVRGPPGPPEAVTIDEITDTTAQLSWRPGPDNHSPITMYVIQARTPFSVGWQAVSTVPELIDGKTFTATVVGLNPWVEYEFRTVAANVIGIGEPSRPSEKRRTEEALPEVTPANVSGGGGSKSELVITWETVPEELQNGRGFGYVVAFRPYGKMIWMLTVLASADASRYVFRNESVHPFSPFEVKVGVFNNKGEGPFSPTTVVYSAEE

[5] = biological target: T5, Human CNTN4 domain sample D1-4 (human, UniProt Q8IWV2 19-400, limits assumed)
T5 construct: domain: Domains 1 to 4; Coated at 1.6 ug/mL
T5 sequence (looked up): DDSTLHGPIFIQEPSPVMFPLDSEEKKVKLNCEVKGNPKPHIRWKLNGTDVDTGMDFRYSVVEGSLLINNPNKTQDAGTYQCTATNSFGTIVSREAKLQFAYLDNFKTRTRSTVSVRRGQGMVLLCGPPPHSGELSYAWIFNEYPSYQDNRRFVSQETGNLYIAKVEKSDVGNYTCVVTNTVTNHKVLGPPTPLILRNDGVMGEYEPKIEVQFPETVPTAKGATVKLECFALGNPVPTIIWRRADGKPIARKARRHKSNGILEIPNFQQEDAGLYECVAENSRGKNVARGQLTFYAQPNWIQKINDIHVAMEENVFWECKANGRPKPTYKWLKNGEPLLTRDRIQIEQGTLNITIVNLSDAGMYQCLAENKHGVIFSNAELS

[6] = biological target: T6, Human CNTN4 domain sample D1-6 (human, UniProt Q8IWV2 19-586, limits assumed)
T6 construct: domain: Domains 1 to 6; Coated at 2.3 ug/mL
T6 sequence (looked up): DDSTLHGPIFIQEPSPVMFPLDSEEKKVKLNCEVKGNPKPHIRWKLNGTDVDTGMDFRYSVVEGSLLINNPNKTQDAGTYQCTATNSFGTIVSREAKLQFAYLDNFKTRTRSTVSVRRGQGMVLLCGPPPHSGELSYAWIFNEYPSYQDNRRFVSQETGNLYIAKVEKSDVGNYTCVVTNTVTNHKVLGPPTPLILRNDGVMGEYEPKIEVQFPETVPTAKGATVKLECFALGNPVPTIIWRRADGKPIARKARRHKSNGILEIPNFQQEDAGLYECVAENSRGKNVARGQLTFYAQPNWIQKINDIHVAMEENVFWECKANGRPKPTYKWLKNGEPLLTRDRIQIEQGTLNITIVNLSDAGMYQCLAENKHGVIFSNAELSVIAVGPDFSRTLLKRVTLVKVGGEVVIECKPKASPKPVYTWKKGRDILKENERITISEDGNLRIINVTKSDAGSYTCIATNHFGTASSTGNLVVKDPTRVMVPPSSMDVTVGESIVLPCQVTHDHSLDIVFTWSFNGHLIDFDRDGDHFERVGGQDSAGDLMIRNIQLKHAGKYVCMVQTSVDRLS

[7] = biological target: T7, Human CNTN4 domain sample D1-9 (human, UniProt Q8IWV2 19-899, limits assumed)
T7 construct: domain: Domains 1 to 9; Coated at 3.6 ug/mL
T7 sequence (looked up): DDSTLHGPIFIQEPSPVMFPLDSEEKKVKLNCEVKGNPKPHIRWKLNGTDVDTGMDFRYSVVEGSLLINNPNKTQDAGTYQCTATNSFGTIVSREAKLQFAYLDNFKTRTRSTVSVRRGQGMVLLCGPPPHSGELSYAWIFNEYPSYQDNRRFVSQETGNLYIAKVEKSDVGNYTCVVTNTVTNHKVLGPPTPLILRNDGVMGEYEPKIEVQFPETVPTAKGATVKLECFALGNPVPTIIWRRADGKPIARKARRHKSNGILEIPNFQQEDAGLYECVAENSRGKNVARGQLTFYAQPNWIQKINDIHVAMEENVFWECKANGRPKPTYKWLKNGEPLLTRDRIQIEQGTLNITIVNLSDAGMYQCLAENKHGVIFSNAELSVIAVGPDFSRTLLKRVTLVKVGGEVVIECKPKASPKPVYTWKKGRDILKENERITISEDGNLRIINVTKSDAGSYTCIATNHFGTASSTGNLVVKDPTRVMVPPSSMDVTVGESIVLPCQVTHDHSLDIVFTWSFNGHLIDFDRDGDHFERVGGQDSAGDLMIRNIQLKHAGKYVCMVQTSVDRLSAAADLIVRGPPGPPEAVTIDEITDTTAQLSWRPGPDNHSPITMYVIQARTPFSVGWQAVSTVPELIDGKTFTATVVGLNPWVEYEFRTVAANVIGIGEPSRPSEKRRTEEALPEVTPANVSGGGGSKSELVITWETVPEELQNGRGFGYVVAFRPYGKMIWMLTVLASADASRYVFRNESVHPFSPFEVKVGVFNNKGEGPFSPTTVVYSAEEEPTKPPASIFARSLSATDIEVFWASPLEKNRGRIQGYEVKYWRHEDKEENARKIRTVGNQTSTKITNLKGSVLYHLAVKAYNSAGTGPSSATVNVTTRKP

binding result [1]: no binding
binding result [2]: binds
binding result [3]: no binding
binding result [4]: binds
binding result [5]: no binding
binding result [6]: no binding
binding result [7]: binds
B1: anti-CNTN4 chicken-human chimeric IgG4 antibody AB1 (antibody, V domains shown)
VH: AVTLDESEGGLQTPGGALSLVCKASGFTFSSFNMFWVRQAPGKGLEYVAEISGGGGSTWYAPAVKGRATISRDNGQSTVRLQLNNLRAEDTGTYYCAKSADTWSYGAATIDAWGHGTEVIVSS
VL: ALTQPSSVSANLGETVKITCSGSSGSYGWYQQKSPGSAPVTLIYDNTNRPSDIPSRFSGSGSGSTGTLTITGVRAEDEAVYYCGGYDGSTDVFGAGTTLTVL
notes: They were cloned into a chicken-human chimeric IgG4 and purified on Kappa select resin, so the light chain has a kappa constant region; also called anti-CNTN4 antibody AB1; anti-CNTN4 129 chimeric IgG4 antibody
